Measurements reported in the Immune Epitope Database (IEDB).

Key:
Assay in all cases: IEDB peptide-MHC binding, purified MHC/competitive/radioactivity; filed as Kd, often an IC50 or EC50 that approximates it; ≥ and ≤ were set here for values at or beyond the usual limits of such assays
Details in all cases: source organism: Plasmodium falciparum 3D7
HLA-A*03:01 = target: HLA-A*03:01
HLA-A*11:01 = target: HLA-A*11:01
HLA-A*31:01 = target: HLA-A*31:01
HLA-A*33:01 = target: HLA-A*33:01
HLA-A*68:01 = target: HLA-A*68:01
HLA-A*23:01 = target: HLA-A*23:01
HLA-A*29:02 = target: HLA-A*29:02
HLA-A*30:02 = target: HLA-A*30:02
HLA-A*24:02 = target: HLA-A*24:02
HLA-A*01:01 = target: HLA-A*01:01
HLA-A*26:01 = target: HLA-A*26:01

Sequence	Kd (HLA-A*03:01)	Kd (HLA-A*11:01)	Kd (HLA-A*31:01)	Kd (HLA-A*33:01)	Kd (HLA-A*68:01)	Kd (HLA-A*23:01)	Kd (HLA-A*29:02)	Kd (HLA-A*30:02)	Kd (HLA-A*24:02)	Kd (HLA-A*01:01)	Kd (HLA-A*26:01)
SQVSNSDSYK	1660 nM	83 nM	≥ 10000 nM	≥ 10 µM	1380 nM	–	–	–	–	–	–
AFLESQSMNK	3060 nM	1090 nM	9890 nM	≥ 10 µM	≥ 10000 nM	–	–	–	–	–	–
IYYFDGNSW	–	–	–	–	–	6.1 nM	3.1 µM	3020 nM	–	–	–
DFFLKSKFNI	–	–	–	–	–	304 nM	≥ 10 µM	2610 nM	1650 nM	–	–
YLINKHWQR	1030 nM	676 nM	4.4 nM	0.0077 µM	3.7 nM	–	–	–	–	–	–
KINSNFLLK	17 nM	6.4 nM	68 nM	≥ 10 µM	2740 nM	–	–	–	–	–	–
EQRLPLLPK	1090 nM	765 nM	423 nM	0.987 µM	1910 nM	–	–	–	–	–	–
SSFDIKSEVK	1900 nM	19 nM	≥ 10000 nM	≥ 10 µM	31 nM	–	–	–	–	–	–
TTRYKYLNK	117 nM	848 nM	416 nM	0.652 µM	2560 nM	–	–	–	–	–	–
ILCIEGEQK	1400 nM	641 nM	7530 nM	≥ 10 µM	526 nM	–	–	–	–	–	–
LEASISGKY	–	–	–	–	–	–	≥ 10 µM	87 nM	–	≥ 10000 nM	3950 nM
RLPLLPKTWK	11 nM	–	340 nM	≥ 10 µM	2890 nM	–	–	–	–	–	–
SISGKYDIK	2090 nM	50 nM	≥ 10000 nM	≥ 10 µM	1740 nM	–	–	–	–	–	–
VYYNILIVL	–	–	–	–	–	52 nM	≥ 10 µM	1130 nM	265 nM	–	–
QNADKNFLY	–	–	–	–	–	–	0.024 µM	663 nM	–	3810 nM	166 nM
LNEQLIYTY	–	–	–	–	–	–	2.4 µM	4130 nM	–	≥ 10000 nM	6210 nM
MFVPKYFEL	–	–	–	–	–	11 nM	2.56 µM	8560 nM	266 nM	–	–

Sequence	Kd (HLA-A*03:01)	Kd (HLA-A*11:01)	Kd (HLA-A*31:01)	Kd (HLA-A*33:01)	Kd (HLA-A*68:01)	Kd (HLA-A*23:01)	Kd (HLA-A*29:02)	Kd (HLA-A*30:02)	Kd (HLA-A*24:02)	Kd (HLA-A*01:01)	Kd (HLA-A*26:01)
IFLRFIPDK	2440 nM	1280 nM	1640 nM	1.31 µM	≥ 10000 nM	–	–	–	–	–	–
FVSSIFISFY	–	–	–	–	–	–	0.022 µM	84 nM	–	118 nM	11 nM
ALKISQLQK	15 nM	96 nM	3200 nM	≥ 10 µM	≥ 10000 nM	–	–	–	–	–	–
PVVCSMEYK	1940 nM	80 nM	≥ 10000 nM	≥ 10 µM	414 nM	–	–	–	–	–	–
NHEQKLSEY	–	–	–	–	–	–	≥ 10 µM	≥ 10000 nM	–	≥ 10000 nM	≥ 10000 nM
QAAESNERY	–	–	–	–	–	–	≥ 10 µM	3010 nM	–	353 nM	142 nM
IFISFYLINK	1990 nM	1060 nM	462 nM	0.394 µM	363 nM	–	–	–	–	–	–
NIFLRFIPDK	≥ 10000 nM	2120 nM	≥ 10000 nM	1.09 µM	1530 nM	–	–	–	–	–	–
PVLTSLFNK	1950 nM	25 nM	5110 nM	≥ 10 µM	≥ 10000 nM	–	–	–	–	–	–
VYRHCEYIL	–	–	–	–	–	64 nM	≥ 10 µM	3330 nM	2200 nM	–	–
LYYLFNQHI	–	–	–	–	–	1.4 nM	≥ 10 µM	≥ 10000 nM	33 nM	–	–
ELEASISGKY	–	–	–	–	–	–	≥ 10 µM	463 nM	–	142 nM	23 nM
KFNILSSPL	–	–	–	–	–	1760 nM	≥ 10 µM	1280 nM	1730 nM	–	–
TYKKKNNHI	–	–	–	–	–	81 nM	≥ 10 µM	–	30 nM	–	–
QQNQESKIMK	3470 nM	77 nM	≥ 10000 nM	≥ 10 µM	≥ 10000 nM	–	–	–	–	–	–
QEEQKKYIY	–	–	–	–	–	–	≥ 10 µM	≥ 10000 nM	–	≥ 10000 nM	≥ 10000 nM
VVCSMEYKK	443 nM	54 nM	891 nM	≥ 10 µM	167 nM	–	–	–	–	–	–
